Reference: US6884600B1, “Protein phosphatase-1 catalytic subunit interactions” (Medical Research Council London, priority 1996, dated 2005)

B1: GST-GM-(E2-D118): GST fusion of amino acids 2-118 of human GM (protein)
chain: EPSEVPSQISKDNFLEVPNLSDSLCEDEEVTFQPGFSPQPSRRGSDSSEDIYLDTPSSGTRRVSFADSFGFNLVSVKEFDCWELPSASTTFDLGTDIFHTEEYVLAPLFDLPSSKEDQLNSS
modifications: left off: a dimerising Fc or GST
notes: GST fusion of amino acids 2-118 of human GM
B2: GST-M110-(M1-S477): GST fusion of rat aorta M110 residues 1-477 (protein)
chain: MKMADAKQKRNEQLKRWIGSETDLEPPVVKRQKTKVKFDDGAVFLAACSSGDTDEVLKLLHRGADINYANVDGLTALHQACIDDNVDMVKFLVENGANINQPDNEGWIPLHAAASCGYLDIAEFLIGQGAHVGAVNSEGDTPLDIAEEEAMEELLQNEVNRQGVDIEAARKEEERIMLRDARQWLNSGHISDVRHAKSGGTALHVAAAKGYTEVLKLLIQAGYDVNIKDYDGWTPLHAAAHWGKEEACRILVDNLCDMETVNKVGQTAFDVADEDILGYLEELQKKQNLLHSEKRDKKSPLIESTANMENNQPQKTFKNKETLIIEPEKNASRIESLEQEKADEEEEGKKDESSCSSEEDEEDDSESEAETDKTKPMASVTNAHTASTQAAPAAVTTPTLSSNQGTPTSPVKKFPTSTTKISPKEEERKDESPASWRLGLRKTGSYGALAEITASKEAQKEKDTAGVIRSASSPRLSSAANSISSLIHRD
modifications: left off: a dimerising Fc or GST
B3: M110-(L24-Y496): rat aorta M110 fragment, residues 24-496 (protein, UniProt Q10728 24-496, looked up, fragment)
chain: LEPPVVKRQKTKVKFDDGAVFLAACSSGDTDEVLKLLHRGADINYANVDGLTALHQACIDDNVDMVKFLVENGANINQPDNEGWIPLHAAASCGYLDIAEFLIGQGAHVGAVNSEGDTPLDIAEEEAMEELLQNEVNRQGVDIEAARKEEERIMLRDARQWLNSGHISDVRHAKSGGTALHVAAAKGYTEVLKLLIQAGYDVNIKDYDGWTPLHAAAHWGKEEACRILVDNLCDMETVNKVGQTAFDVADEDILGYLEELQKKQNLLHSEKRDKKSPLIESTANMENNQPQKTFKNKETLIIEPEKNASRIESLEQEKADEEEEGKKDESSCSSEEDEEDDSESEAETDKTKPMASVTNAHTASTQAAPAAVTTPTLSSNQGTPTSPVKKFPTSTTKISPKEEERKDESPASWRLGLRKTGSYGALAEITASKEAQKEKDTAGVIRSASSPRLSSSLDNKEKEKDNKGTRLAY
B4: M110-(M1-A150): rat aorta M110 fragment, residues 1-150 (protein, UniProt Q10728 1-150, looked up, fragment)
chain: MKMADAKQKRNEQLKRWIGSETDLEPPVVKRQKTKVKFDDGAVFLAACSSGDTDEVLKLLHRGADINYANVDGLTALHQACIDDNVDMVKFLVENGANINQPDNEGWIPLHAAASCGYLDIAEFLIGQGAHVGAVNSEGDTPLDIAEEEA
B5: GST-GM-(E2-P243): GST fusion of amino acids 2-243 of human GM (protein)
chain: EPSEVPSQISKDNFLEVPNLSDSLCEDEEVTFQPGFSPQPSRRGSDSSEDIYLDTPSSGTRRVSFADSFGFNLVSVKEFDCWELPSASTTFDLGTDIFHTEEYVLAPLFDLPSSKEDLMQQLQIQKAILESTESLLGSTSIKGIIRVLNVSFEKLVYVRMSLDDWQTHYDILAEYVPNSCDGETDQFSFKIVLVPPYQKDGSKVEFCIRYETSVGTFWSNNNGTNYTFICQKKEQEPEPVKP
modifications: left off: a dimerising Fc or GST
notes: GST fusion of amino acids 2-243 of human GM

Key:
PP1c (γ1-isoform) = PP1c (γ1-isoform) (Homo sapiens, UniProt P36873); experiment: Far Western: GST-GM fusion proteins probed with digoxygenin-labelled PP1γ; type: binding; details: GST-fusion proteins on blot probed with digoxygenin-labelled PP1γ
PP1c (γ1-isoform), sequence (P36873 whole entry, the tested form may be a part, canonical isoform): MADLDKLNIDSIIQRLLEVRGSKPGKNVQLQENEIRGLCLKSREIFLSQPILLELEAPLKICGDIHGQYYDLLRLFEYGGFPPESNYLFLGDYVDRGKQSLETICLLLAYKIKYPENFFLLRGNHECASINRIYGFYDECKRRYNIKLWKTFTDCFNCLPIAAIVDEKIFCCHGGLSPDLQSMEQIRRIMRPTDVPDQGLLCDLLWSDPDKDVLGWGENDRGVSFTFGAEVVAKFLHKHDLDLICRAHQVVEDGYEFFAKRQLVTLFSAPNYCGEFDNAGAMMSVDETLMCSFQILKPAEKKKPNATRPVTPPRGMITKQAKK
Excerpt: GST-GM fusion proteins were electrophoresed on 10% SDS/polyacrylamide gels and stained with Coomassie blue (lanes 1-3) or, after transfer to nitrocellulose, probed with digoxygenin-labelled PP1γ (lanes 4-6) as in [9]. Lanes 1 and 4, GST-GM-(E2-D118); Lanes 2 and 5, GST-GM-(H100-P350); Lanes 3 and 6, GST. The positions of the marker proteins glycogen phosphorylase (97 kDa), bovine serum albumin (66 kDa), ovalbumin (43 kDa), carbonic anhydrase (29 kDa) and soybean trypsin inhibitor (20 kDa) are indicated.
(§1) The myosin-associated form of PP1 (PP1M) was from chicken gizzard and the glycogen-associated form of PP1 (PP1G) from rabbit skeletal muscle. The β isoform of PP1c was released from PP1G by incubation for 2 hours in 2M LiBr, then purified by gel-filtration on a 30×1 cm column of Superose 12 (Pharmacia, Milton Keynes, U.K.) in the presence of 0.5M LiBr. Glycogen protein particles from rat liver were used as the source of hepatic PP1G Digoxygenin-labelled PP1c (γ1-isoform, hereafter termed PP1) was prepared as in [9]. GL was expressed in E. coli as a glutathione-S-transferase (GST) fusion protein [7], termed GST-GL. The catalytic subunit of PP2A from bovine heart (PP2AC) was provided by Dr R. MacKintosh in this Unit. The phosphorylatable myosin light chain (MLC20) and heavy meromyosin from chicken gizzard were a gift from Dr M. Ikebe (Case Western Reserve University, Cleveland, USA). Thrombin and benzamidine-Agarose were purchased from Sigma (Poole, UK).
The amino acid sequence of rat hepatic GL is 23% identical (39% similar) to residues 1-286 of GM from human skeletal muscle. […] Fusion proteins in which GST was linked to fragments of GM were therefore tested for their ability to bind to PP1c. […] We therefore synthesised GM-(G63-T93) and examined its effect on the enzymatic properties of PP1GL, the form of PP1 associated with rat hepatic protein-glycogen particles.

PP1c [1] = target: T1, PP1c (Oryctolagus cuniculus, UniProt P62143); experiment: Phosphorylase phosphatase activity of PP1c; type: biochemical, rabbit
T1 construct: from tissue; host or cells: rabbit skeletal muscle (PP1G dissociated with LiBr)
T1 sequence (P62143 whole entry): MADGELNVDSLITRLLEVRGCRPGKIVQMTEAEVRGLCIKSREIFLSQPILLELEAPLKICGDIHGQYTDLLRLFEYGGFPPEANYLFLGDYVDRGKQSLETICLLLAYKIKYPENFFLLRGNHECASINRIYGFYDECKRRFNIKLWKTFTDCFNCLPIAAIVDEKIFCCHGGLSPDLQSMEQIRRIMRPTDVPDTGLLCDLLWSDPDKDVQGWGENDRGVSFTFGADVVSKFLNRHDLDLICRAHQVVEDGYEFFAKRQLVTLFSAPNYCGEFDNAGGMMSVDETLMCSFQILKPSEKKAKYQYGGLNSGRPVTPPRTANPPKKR
Experimental: (§2) A,B; Effects of M110-(M1-E309) (closed circles), M110-(M1-F38) (open circles) and M110-(D39-E309) (open triangles) on the MLC20 phosphatase […] and phosphorylase phosphatase (B) activities of PP1c were measured after incubating PP1c for 15 minutes at 30° C. with each fragment. The results are presented as a percentage of those obtained in experiments where the M110 fragments were omitted.
(§3) C,D; The effect of M110-(M1-A150) (open circles) and M110-(L24-Y496) (closed circles) on the MLC20 phosphatase (C) and phosphorylase phosphatase (D) activities of PP1c were measured as in A,B.
(B) The phosphorylase phosphatase activity of PP1c was assayed as in A in the presence or absence of 1 μM GM-(G63-T93) and 1.0 nM M110-(M1-E309). The results are presented (SEM for three experiments) as a percentage of the PP1c activity measured in the absence of GM-(63-T93), M110-(M1-F38) or M110-(M1-E309).
as §1
(§4) ^32P-labelled rabbit skeletal muscle phosphorylase a (containing 1.0 mol phosphate per mol subunit) was prepared by phosphorylation with phosphorylase kinase, ^32P-labelled rabbit skeletal muscle glycogen synthase (containing 1.5 mol/mol subunit in the sites 3 region) was prepared by phosphorylation with glycogen synthase kinase-3 [24]). ^32P-labelled chicken gizzard MLC20 and ^32P-labelled chicken gizzard heavy meromyosin (containing 1.0 mol phosphate per mol subunit) were prepared by phosphorylation with smooth muscle myosin light chain kinase. The dephosphorylation of phosphorylase a (10 μM), glycogen synthase (1 μM) and MLC20 (1 μM) and heavy meromyosin (1 μM) was carried out as in [24]. One unit of activity (U) was that amount which released […] of phosphate in one minute.
(§5) PP1c was isolated from the rabbit skeletal muscle PP1-GM complex as described previously (Johnson et al, 1996). Glycogen particles isolated from rat liver (Schelling el al, 1988) served as the source of PP1-GL. The dephosphorylation of glycogen phosphorylase (10 μM) and the isolated MLC20 of smooth muscle myosin (1 μM) by PP1c was carried out as described previously (Cohen et al., 1988; Alessi et al., 1992).

PP1c [2] = target: T1, PP1c; experiment: MLC20 (myosin P-light chain) phosphatase activity of PP1c; type: biochemical
Experimental: as §2, §3
(A) The MLC20 phosphatase activity of PP1c was assayed after incubation for 15 minutes at 30° C. in the presence or absence of 1 μM GM-(G63-T93) and either 0.1 μM M110-(M1-F38) or 0.1 nM M110-(M1-E309).
(1-38, open circles) or M110[M1-K35] (1-35, closed circles) were incubated with PP1c for 15 min at 30° C. and reactions started with the ^32P-labelled MLC20 substrate. The results are expressed as a % of the activity determined in control incubations where the M110 peptides were omitted (100%). Similar results were obtained in three separate experiments.
as §1, §4, §5
^32P-labelled myosin P-light chains containing 1.0 mol phosphate per mol subunit was prepared by phosphorylation with smooth muscle myosin light chain kinase. The dephosphorylation of myosin P-light chain (1 μM) was carried out as in [4] and one unit of activity (U) was that amount which catalysed the release of 1 μmole of phosphate in one min. When assaying PP1M in immunoprecipitates from the myofibrillar extracts, the tubes were shaken continuously and 3 nM okadaic acid was included to inhibit any PP2A present.

myosin = target: T2, myosin (Gallus gallus, UniProt P10587); experiment: Myosin binding assay (pelleting with myosin); design: species or system chicken; details: myosin 1 μM, 15 min 0° C.
T2 construct: from tissue; host or cells: chicken gizzard
T2 sequence (P10587 whole entry): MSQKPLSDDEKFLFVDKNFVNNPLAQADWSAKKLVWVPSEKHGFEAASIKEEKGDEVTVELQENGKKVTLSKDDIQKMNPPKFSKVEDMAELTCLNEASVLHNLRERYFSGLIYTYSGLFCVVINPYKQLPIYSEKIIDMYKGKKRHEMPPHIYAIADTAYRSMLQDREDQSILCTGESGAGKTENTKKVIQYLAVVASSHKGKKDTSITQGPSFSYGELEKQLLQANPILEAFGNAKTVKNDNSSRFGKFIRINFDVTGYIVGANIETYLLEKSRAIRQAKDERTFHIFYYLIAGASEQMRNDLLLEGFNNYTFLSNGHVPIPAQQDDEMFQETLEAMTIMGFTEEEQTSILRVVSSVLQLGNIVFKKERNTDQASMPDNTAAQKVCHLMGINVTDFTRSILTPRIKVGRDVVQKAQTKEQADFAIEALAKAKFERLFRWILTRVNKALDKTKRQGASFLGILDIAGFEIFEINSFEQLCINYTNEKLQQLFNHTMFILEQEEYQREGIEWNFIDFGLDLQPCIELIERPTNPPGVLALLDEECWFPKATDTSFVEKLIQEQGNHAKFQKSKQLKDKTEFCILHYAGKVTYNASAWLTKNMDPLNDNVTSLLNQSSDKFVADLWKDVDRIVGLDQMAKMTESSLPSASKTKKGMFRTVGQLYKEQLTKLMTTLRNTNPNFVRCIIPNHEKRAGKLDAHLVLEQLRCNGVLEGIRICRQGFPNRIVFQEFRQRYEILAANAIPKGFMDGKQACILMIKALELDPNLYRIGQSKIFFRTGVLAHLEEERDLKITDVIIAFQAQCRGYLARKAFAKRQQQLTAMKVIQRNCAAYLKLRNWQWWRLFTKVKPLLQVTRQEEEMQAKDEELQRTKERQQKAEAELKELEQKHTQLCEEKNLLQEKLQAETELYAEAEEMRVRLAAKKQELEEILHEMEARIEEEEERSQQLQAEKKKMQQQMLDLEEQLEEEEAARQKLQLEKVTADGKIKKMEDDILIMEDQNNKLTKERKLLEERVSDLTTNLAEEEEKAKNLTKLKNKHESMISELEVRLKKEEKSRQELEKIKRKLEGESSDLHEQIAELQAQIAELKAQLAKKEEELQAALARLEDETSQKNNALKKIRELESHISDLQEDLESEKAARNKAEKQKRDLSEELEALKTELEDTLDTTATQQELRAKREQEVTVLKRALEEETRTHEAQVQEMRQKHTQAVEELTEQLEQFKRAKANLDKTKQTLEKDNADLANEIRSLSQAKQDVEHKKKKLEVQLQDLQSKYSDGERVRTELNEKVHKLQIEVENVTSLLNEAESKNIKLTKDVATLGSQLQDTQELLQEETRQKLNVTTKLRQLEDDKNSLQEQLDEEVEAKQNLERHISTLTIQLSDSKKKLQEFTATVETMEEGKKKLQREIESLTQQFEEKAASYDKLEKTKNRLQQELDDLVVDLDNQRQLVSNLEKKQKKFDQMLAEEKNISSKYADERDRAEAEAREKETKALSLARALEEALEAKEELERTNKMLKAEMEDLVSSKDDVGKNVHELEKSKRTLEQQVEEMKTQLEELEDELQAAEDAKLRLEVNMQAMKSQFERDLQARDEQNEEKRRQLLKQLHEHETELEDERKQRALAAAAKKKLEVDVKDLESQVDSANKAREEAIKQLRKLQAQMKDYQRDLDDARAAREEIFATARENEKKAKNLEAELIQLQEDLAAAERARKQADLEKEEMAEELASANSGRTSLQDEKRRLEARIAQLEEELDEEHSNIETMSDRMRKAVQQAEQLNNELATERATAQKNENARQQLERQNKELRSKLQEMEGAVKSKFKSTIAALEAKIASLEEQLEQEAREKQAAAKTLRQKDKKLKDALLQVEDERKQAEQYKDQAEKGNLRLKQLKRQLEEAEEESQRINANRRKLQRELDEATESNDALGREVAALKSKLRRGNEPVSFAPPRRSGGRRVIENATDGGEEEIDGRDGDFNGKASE
T2 sequence (P02612 whole entry partner): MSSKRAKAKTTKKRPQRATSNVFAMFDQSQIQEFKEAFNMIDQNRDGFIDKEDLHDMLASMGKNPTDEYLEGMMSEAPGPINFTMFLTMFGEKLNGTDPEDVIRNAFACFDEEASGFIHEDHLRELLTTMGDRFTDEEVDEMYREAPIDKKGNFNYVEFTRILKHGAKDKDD
T2 sequence (P02607 whole entry partner): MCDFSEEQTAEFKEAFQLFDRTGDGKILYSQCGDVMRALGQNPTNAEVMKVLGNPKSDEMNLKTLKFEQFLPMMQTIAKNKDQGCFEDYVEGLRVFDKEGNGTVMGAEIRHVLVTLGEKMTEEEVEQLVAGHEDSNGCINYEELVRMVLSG
Experimental: The PP1 catalytic subunit (PP1c), PP1M, or PP1M lacking the M21 subunit, PP1M(ΔM21), each at 30 nM, were incubated for 15 min at 0° C. with 1 μM myosin and centrifuged (see Methods of Example 3). […] The results shown are the average (±S.E.M.) for three separate experiments each assayed in duplicate.
(A); PP1M, M110-(M1-S477) and GST-M110-(M377-K976), each at 30 nM were incubated for 15 min at 0° C. with 1 μM myosin and centrifuged. The supernatants (S), resuspended pellets (P) and the suspension before centrifugation (T, total) were electrophoresed on 12% SDS/polyacrylamide gels, transferred to nitrocellulose and immunoblotted with antibodies raised against the PP1M holoenzyme. No protein was pelleted in the absence of myosin (not shown). The positions of the marker proteins myosin heavy chain (200 kDa), glycogen phosphorylase (97 kDa), bovine serum albumin (66 kDa), ovalbumin (43 kDa), carbonic anhydrase (29 kDa) and soybean trypsin inhibitor (20 kDa) are indicated. (B) The experiments were carried out as in (A), except that the M110 fragments and M21 subunit were used at 100 nM, the 8.5 kDa M110-(K933-I1004) fragment was electrophoresed on a 16.5% polyacrylamide gel and immunoblotting was carried out with affinity purified antibodies (see Methods). A small amount of M110-(R714-I1004) pelleted in the absence of myosin. […] No other protein was pelleted in the absence of myosin.
(A); Myosin (1 μM) was mixed with 50 μM, 20 μM or 10 μM M21 subunit to give the molar ratios M21:myosin dimer indicated. After 15 min at 0° C., the solutions were centrifuged and the supernatants (S), resuspended pellets (P) and the suspension before centrifugation (T, total) were electrophoresed on 12% SDS/polyacrylamide gels and stained with Coomassie blue. The positions of the myosin heavy chain (MHC) and the M21 subunit are indicated. The myosin light chains migrate faster than the M21 subunit and are not visible at these loadings.
Myosin binding assays. Myosin (0.5 mg/ml, 1 μM in terms of myosin heavy chains) in 10 mM Hepes pH 7.5, 50 mM KCl, 5 mM MgCl2, 0.1% (by vol) 2-mercaptoethanol, was mixed with PP1M, M21 subunit, or fragments of the M110 and M21 subunits, at the concentrations indicated in figure legends. After incubation for 15 min at 0° C., the solutions were centrifuged for 2 min at 13,000×g, the supernatants removed, and the pellets washed twice in 10 mM Hepes pH 7.5, 50 mM KCl, 5 mM MgCl2, 0.1% (by vol) 2-mercaptoethanol before resuspension in 50 mM Tris-HCl pH 7.5, 0.1 mM EGTA, 0.03% (by mass) Brij 35, 0.6 M NaCl, 0.1% (by vol) 2-mercaptoethanol. Aliquots of the supernatant, the resuspended pellet and the suspension before centrifugation were either assayed for myosin P-light chain phosphatase activity or denatured in SDS and analysed by SDS/polyacrylamide gel electrophoresis.

| Molecule | interaction with PP1 in Far Western experiments (PP1c (γ1-isoform)) | effect on the phosphorylase phosphatase activity of PP1c (PP1c [1]) | effect on the MLC20 phosphatase activity of PP1c (PP1c [2]) | binding to myosin (myosin) | concentration needed to modulate the specificity of PP1c compared to thrombin-cleaved M110-(M1-E309) (PP1c [2]) [fold higher] |
| --- | --- | --- | --- | --- | --- |
| B1 | interacted with PP1 |  |  |  |  |
| B2 |  | inhibited the dephosphorylation of glycogen phosphorylase | stimulated the PP1c-catalysed dephosphorylation of the myosin P-light chain | neither GST-M110-(M1-S477) nor GST-M110-(M1-E309) bound to myosin |  |
| B3 |  | inhibited the phosphorylase phosphatase activity of PP1c in a similar manner to M110-(M1-A150) | less effective than M110-(M1-A150) or M110-(M1-E309) in stimulating the MLC20 phosphatase activity of PP1c |  |  |
| B4 |  | modified the specificity of PP1 similarly | modified the specificity of PP1 similarly |  | 10 |
| B5 | interacted with PP1 |  |  |  |  |
